Results taken from doi:10.1101/2024.02.20.581209 (bioRxiv, 2024).

T1: MglA (Myxococcus xanthus, UniProt Q1DB04 1-195)
T1 sequence: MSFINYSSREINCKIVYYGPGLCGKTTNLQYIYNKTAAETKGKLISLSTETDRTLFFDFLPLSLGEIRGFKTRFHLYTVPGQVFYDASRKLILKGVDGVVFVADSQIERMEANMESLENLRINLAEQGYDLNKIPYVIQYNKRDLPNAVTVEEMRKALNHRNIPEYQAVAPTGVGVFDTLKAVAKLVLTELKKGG


Assays:
[1] = target: RomR-REC^141 (Myxococcus xanthus); assay: SEC-MALS
MglA = target: T1, MglA; assay: ITC
[2] = target: RomR-REC^141 (Myxococcus xanthus); assay: ITC
[3] = target: RomR-REC^125 (Myxococcus xanthus); assay: ITC

Row | stoichiometry N [1] | Kd (MglA) [nM] | stoichiometry N (MglA) | Kd [2] [nM] | stoichiometry N [2] | Kd [3] [nM] | stoichiometry N [3] | Molecule
1 | 1 | – | – | – | – | – | – | RomX (hexahistidine-tagged, end of the tag not told for this experiment) (natural protein)
2 | – | 4800 | 1.1 | 1200 | 1.2 | 1140 | 1.3 | RomX (N-terminal hexahistidine tagged construct) (natural protein, M. xanthus) MTDEEKVKAMRLARAIASDISLYNEQKIIKGIEQDNLFEVLKEELEEGRELYKSRVSQEIFTKMNFFERAINDIVLRSKAHVKSKIW
